The values below come from the supplement of paper PMC5998384.

The test system of series [1] is HeLa Kyoto. In words: solubility in G1/S (NP-40 vs SDS abundance) (log2 ratio); higher = more soluble. As to conditions: cell cycle stage: G1/S.
In series [2] the test system is HeLa Kyoto. In words: melting temperature (median over replicates), in situ; higher = more thermally stable.
Series [3] has as its system HeLa Kyoto. In words: solubility change mitosis vs G1/S (difference of NP-40 vs SDS log2 ratios) (log2 ratio difference); higher = more soluble in mitosis.
Series [4] deals with HeLa Kyoto. In words: thermal stability score vs G1/S (z-score of summed log2 fold changes over temperatures); higher = more thermally stable than in G1/S.
The mark [5] stands for this setting: cell cycle stage: early G1 (4.5 h after nocodazole release).
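Throughout, for melting temperature (median over replicates), in situ: HeLa Kyoto cells synchronized by double thymidine or nocodazole block, proteins quantified by TMT10plex mass spectrometry, three independent biological replicates.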
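Throughout, for solubility change mitosis vs G1/S (difference of NP-40 vs SDS log2 ratios): synchronized HeLa Kyoto cells (double thymidine block for G1/S, nocodazole release for mitosis), protein amounts in NP-40 versus SDS lysates quantified by mass spectrometry, three biological replicates.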
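Throughout, for solubility in G1/S (NP-40 vs SDS abundance): HeLa Kyoto cells arrested at G1/S by double thymidine block, proteins quantified by TMT10plex mass spectrometry in mild NP-40 versus SDS extracts, three biological replicates.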
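Throughout, for thermal stability score vs G1/S (z-score of summed log2 fold changes over temperatures): synchronized HeLa Kyoto cells, proteins quantified by TMT10plex mass spectrometry, three biological replicates, mitosis taken 0.5 h after nocodazole release, G1/S directly after double thymidine block.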

For “MDISTRSKDPGSAERTAQKRKFPSPPHSSNGHSPQDTSTSPIKKKKKPGLLNSNNKEQSELRHGPFYYMKQPLTTDPVDVVPQDGRNDFYCWVCHREGQVLCCELCPRVYHAKCLRLTSEPEGDWFCPECEKITVAECIETQSKAMTMLTIEQLSYLLKFAIQKMKQPGTDAFQKPVPLEQHPDYAEYIFHPMDLCTLEKNAKKKMYGCTEAFLADAKWILHNCIIYNGGNHKLTQIAKVVIKICEHEMNEIEVCPECYLAACQKRDNWFCEPCSNPHPLVWAKLKGFPFWPAKALRDKDGQVDARFFGQHDRAWVPINNCYLMSKEIPFSVKKTKSIFNSAMQEMEVYVENIRRKFGVFNYSPFRTPYTPNSQYQMLLDPTNPSAGTAKIDKQEKVKLNFDMTASPKILMSKPVLSGGTGRRISLSDMPRSPMSTNSSVHTGSDVEQDAEKKATSSHFSASEESMDFLDKSTASPASTKTGQAGSLSGSPKPFSPQLSAPITTKTDKTSTTGSILNLNLDRSKAEMDLKELSESVQQQSTPVPLISPKRQIRSRFQLNLDKTIESCKAQLGINEISEDVYTAVEHSDSEDSEKSDSSDSEYISDDEQKSKNEPEDTEDKEGCQMDKEPSAVKKKPKPTNPVEIKEELKSTSPASEKADPGAVKDKASPEPEKDFSEKAKPSPHPIKDKLKGKDETDSPTVHLGLDSDSESELVIDLGEDHSGREGRKNKKEPKEPSPKQDVVGKTPPSTTVGSHSPPETPVLTRSSAQTSAAGATATTSTSSTVTVTAPAPAATGSPVKKQRPLLPKETAPAVQRVVWNSSSKFQTSSQKWHMQKMQRQQQQQQQQNQQQQPQSSQGTRYQTRQAVKAVQQKEITQSPSTSTITLVTSTQSSPLVTSSGSMSTLVSSVNADLPIATASADVAADIAKYTSKMMDAIKGTMTEIYNDLSKNTTGSTIAEIRRLRIEIEKLQWLHQQELSEMKHNLELTMAEMRQSLEQERDRLIAEVKKQLELEKQQAVDETKKKQWCANCKKEAIFYCCWNTSYCDYPCQQAHWPEHMKSCTQSATAPQQEADAEVNTETLNKSSQGSSSSTQSAPSETASASKEKETSAEKSKESGSTLDLSGSRETPSSILLGSNQGSDHSRSNKSSWSSSDEKRGSTRSDHNTSTSTKSLLPKESRLDTFWD [ZMYND8]”, the “solubility in G1/S (log2)” value with HeLa Kyoto [1] was -0.387. The melting temperature in the series with HeLa Kyoto [2] (cell cycle stage: G1/S) came to 48.5 °C; in the series with HeLa Kyoto [2] (cell cycle stage: mitosis), 50.2 °C. The “solubility change mitosis (log2)” value in the series on HeLa Kyoto [3] is 0.163. Also, the thermal stability score in the series on HeLa Kyoto [4] (setting [5]) turned out to be 1.53; in the series on HeLa Kyoto [4] (cell cycle stage: mitosis), 3.16.
For “MDKVCAVFGGSRGIGRAVAQLMARKGYRLAVIARNLEGAKAAAGDLGGDHLAFSCDVAKEHDVQNTFEELEKHLGRVNFLVNAAGINRDGLLVRTKTEDMVSQLHTNLLGSMLTCKAAMRTMIQQQGGSIVNVGSIVGLKGNSGQSVYSASKGGLVGFSRALAKEVARKKIRVNVVAPGFVHTDMTKDLKEEHLKKNIPLGRFGETIEVAHAVVFLLESPYITGHVLVVDGGLQLIL [CBR4]”, the “solubility in G1/S (log2)” value in the series with HeLa Kyoto [1] came out at 0.0654. In addition, the melting temperature in the series on HeLa Kyoto [2] (cell cycle stage: G1/S) came to 54 °C; in the series on HeLa Kyoto [2] (cell cycle stage: mitosis), 55.2 °C. Moreover, the “solubility change mitosis (log2)” value in the series on HeLa Kyoto [3] is -0.0343. For the same sequence, the values for the thermal stability score in the series on HeLa Kyoto [4] (setting [5]) and in the series with HeLa Kyoto [4] (cell cycle stage: mitosis) were 1.14 and -0.318, respectively.
With “MDLAAAAEPGAGSQHLEVRDEVAEKCQKLFLDFLEEFQSSDGEIKYLQLAEELIRPERNTLVVSFVDLEQFNQQLSTTIQEEFYRVYPYLCRALKTFVKDRKEIPLAKDFYVAFQDLPTRHKIRELTSSRIGLLTRISGQVVRTHPVHPELVSGTFLCLDCQTVIRDVEQQFKYTQPNICRNPVCANRRRFLLDTNKSRFVDFQKVRIQETQAELPRGSIPRSLEVILRAEAVESAQAGDKCDFTGTLIVVPDVSKLSTPGARAETNSRVSGVDGYETEGIRGLRALGVRDLSYRLVFLACCVAPTNPRFGGKELRDEEQTAESIKNQMTVKEWEKVFEMSQDKNLYHNLCTSLFPTIHGNDEVKRGVLLMLFGGVPKTTGEGTSLRGDINVCIVGDPSTAKSQFLKHVEEFSPRAVYTSGKASSAAGLTAAVVRDEESHEFVIEAGALMLADNGVCCIDEFDKMDVRDQVAIHEAMEQQTISITKAGVKATLNARTSILAAANPISGHYDRSKSLKQNINLSAPIMSRFDLFFILVDECNEVTDYAIARRIVDLHSRIEESIDRVYSLDDIRRYLLFARQFKPKISKESEDFIVEQYKHLRQRDGSGVTKSSWRITVRQLESMIRLSEAMARMHCCDEVQPKHVKEAFRLLNKSIIRVETPDVNLDQEEEIQMEVDEGAGGINGHADSPAPVNGINGYNEDINQESAPKASLRLGFSEYCRISNLIVLHLRKVEEEEDESALKRSELVNWYLKEIESEIDSEEELINKKRIIEKVIHRLTHYDHVLIELTQAGLKGSTEGSESYEEDPYLVVNPNYLLED [MCM6]”, the “solubility in G1/S (log2)” value in the series on HeLa Kyoto [1] is -0.0881. In addition, the melting temperature was determined as 50.6 °C in the series on HeLa Kyoto [2] (cell cycle stage: G1/S) and 50.7 °C in the series on HeLa Kyoto [2] (cell cycle stage: mitosis). In the series on HeLa Kyoto [3], the “solubility change mitosis (log2)” value is -0.0695. Besides, the thermal stability score in the series on HeLa Kyoto [4] (setting [5]) was found to be 3.18; in the series on HeLa Kyoto [4] (cell cycle stage: mitosis) it was 4.76.
Turning to “MDLENKVKKMGLGHEQGFGAPCLKCKEKCEGFELHFWRKICRNCKCGQEEHDVLLSNEEDRKVGKLFEDTKYTTLIAKLKSDGIPMYKRNVMILTNPVAAKKNVSINTVTYEWAPPVQNQALARQYMQMLPKEKQPVAGSEGAQYRKKQLAKQLPAHDQDPSKCHELSPREVKEMEQFVKKYKSEALGVGDVKLPCEMDAQGPKQMNIPGGDRSTPAAVGAMEDKSAEHKRTQYSCYCCKLSMKEGDPAIYAERAGYDKLWHPACFVCSTCHELLVDMIYFWKNEKLYCGRHYCDSEKPRCAGCDELIFSNEYTQAENQNWHLKHFCCFDCDSILAGEIYVMVNDKPVCKPCYVKNHAVVCQGCHNAIDPEVQRVTYNNFSWHASTECFLCSCCSKCLIGQKFMPVEGMVFCSVECKKRMS [TES]”, the “solubility in G1/S (log2)” value with HeLa Kyoto [1] worked out at 0.0767. The melting temperature is 52 °C with HeLa Kyoto [2] (cell cycle stage: G1/S) and 52.3 °C in the series on HeLa Kyoto [2] (cell cycle stage: mitosis). In addition, in the series on HeLa Kyoto [3], the “solubility change mitosis (log2)” value is -0.111. The values for the thermal stability score in the series on HeLa Kyoto [4] (setting [5]) and with HeLa Kyoto [4] (cell cycle stage: mitosis) were -0.92 and -1.54, respectively.
Regarding “MDLGAITKYSALHAKPNGLILQYGTAGFRTKAEHLDHVMFRMGLLAVLRSKQTKSTIGVMVTASHNPEEDNGVKLVDPLGEMLAPSWEEHATCLANAEEQDMQRVLIDISEKEAVNLQQDAFVVIGRDTRPSSEKLSQSVIDGVTVLGGQFHDYGLLTTPQLHYMVYCRNTGGRYGKATIEGYYQKLSKAFVELTKQASCSGDEYRSLKVDCANGIGALKLREMEHYFSQGLSVQLFNDGSKGKLNHLCGADFVKSHQKPPQGMEIKSNERCCSFDGDADRIVYYYHDADGHFHLIDGDKIATLISSFLKELLVEIGESLNIGVVQTAYANGSSTRYLEEVMKVPVYCTKTGVKHLHHKAQEFDIGVYFEANGHGTALFSTAVEMKIKQSAEQLEDKKRKAAKMLENIIDLFNQAAGDAISDMLVIEAILALKGLTVQQWDALYTDLPNRQLKVQVADRRVISTTDAERQAVTPPGLQEAINDLVKKYKLSRAFVRPSGTEDVVRVYAEADSQESADHLAHEVSLAVFQLAGGIGERPQPGF [PGM3]”, the “solubility in G1/S (log2)” value with HeLa Kyoto [1] amounted to 0.186. The melting temperature amounted to 51.4 °C in the series on HeLa Kyoto [2] (cell cycle stage: G1/S) and 51.2 °C in the series with HeLa Kyoto [2] (cell cycle stage: mitosis). In addition, the “solubility change mitosis (log2)” value in the series with HeLa Kyoto [3] is -0.0835. Also, the thermal stability score is -0.282 with HeLa Kyoto [4] (setting [5]) and -0.735 with HeLa Kyoto [4] (cell cycle stage: mitosis).
As for “MDLGPLNICEEMTILHGGFLLAEQLFHPKALAELTKSDWERVGRPIVEALREISSAAAHSQPFAWKKKALIIIWAKVLQPHPVTPSDTETRWQEDLFFSVGNMIPTINHTILFELLKSLEASGLFIQLLMALPTTICHAELERFLEHVTVDTSAEDVAFFLDVWWEVMKHKGHPQDPLLSQFSAMAHKYLPALDEFPHPPKRLRSDPDACPTMPLLAMLLRGLTQIQSRILGPGRKCCALANLADMLTVFALTEDDPQEVSATVYLDKLATVISVWNSDTQNPYHQQALAEKVKEAERDVSLTSLAKLPSETIFVGCEFLHHLLREWGEELQAVLRSSQGTSYDSYRLCDSLTSFSQNATLYLNRTSLSKEDRQVVSELAECVRDFLRKTSTVLKNRALEDITASIAMAVIQQKMDRHMEVCYIFASEKKWAFSDEWVACLGSNRALFRQPDLVLRLLETVIDVSTADRAIPESQIRQVIHLILECYADLSLPGKNKVLAGILRSWGRKGLSEKLLAYVEGFQEDLNTTFNQLTQSASEQGLAKAVASVARLVIVHPEVTVKKMCSLAVVNLGTHKFLAQILTAFPALRFVEEQGPNSSATFMVSCLKETVWMKFSTPKEEKQFLELLNCLMSPVKPQGIPVAALLEPDEVLKEFVLPFLRLDVEEVDLSLRIFIQTLEANACREEYWLQTCSPFPLLFSLCQLLDRFSKYWQLPKEKRCLSLDRKDLAIHILELLCEIVSANAETFSPDVWIKSLSWLHRKLEQLDWTVGLRLKSFFEGHFKCEVPATLFEICKLSEDEWTSQAHPGYGAGTGLLAWMECCCVSSGISERMLSLLVVDVGNPEEVRLFSKGFLVALVQVMPWCSPQEWQRLHQLTRRLLEKQLLHVPYSLEYIQFVPLLNLKPFAQELQLSVLFLRTFQFLCSHSCRDWLPLEGWNHVVKLLCGSLTRLLDSVRAIQAAGPWVQGPEQDLTQEALFVYTQVFCHALHIMAMLHPEVCEPLYVLALETLTCYETLSKTNPSVSSLLQRAHEQRFLKSIAEGIGPEERRQTLLQKMSSF [GEMIN4]”, the “solubility in G1/S (log2)” value in the series with HeLa Kyoto [1] was -0.428. Besides, the melting temperature was determined as 47 °C in the series on HeLa Kyoto [2] (cell cycle stage: G1/S) and 49.3 °C in the series on HeLa Kyoto [2] (cell cycle stage: mitosis). Besides, in the series on HeLa Kyoto [3], the “solubility change mitosis (log2)” value is -0.14. The values for the thermal stability score in the series with HeLa Kyoto [4] (setting [5]) and in the series with HeLa Kyoto [4] (cell cycle stage: mitosis) were 0.771 and 3.29, respectively.
